# Article PMC6537880 (Analytical chemistry, 2016)
# B1: AAV8 capsid viral protein VP3 (natural protein)
# chain: MAAGGGAPMADNNEGADGVGSSSGNWHCDSTWLGDRVITTSTRTWALPTYNNHLYKQISNGTSGGATNDNTYFGYSTPWGYFDFNRFHCHFSPRDWQRLINNNWGFRPKRLSFKLFNIQVKEVTQNEGTKTIANNLTSTIQVFTDSEYQLPYVLGSAHQGCLPPFPADVFMIPQYGYLTLNNGSQAVGRSSFYCLEYFPSQMLRTGNNFQFTYTFEDVPFHSSYAHSQSLDRLMNPLIDQYLYYLSRTQTTGGTANTQTLGFSQGGPNTMANQAKNWLPGPCYRQQRVSTTTGQNNNSNFAWTAGTKYHLNGRNSLANPGIAMATHKDDEERFFPSNGILIFGKQNAARDNADYSDVMLTSEEEIKTTNPVATEEYGIVADNLQQQNTAPQIGTVNSQGALPGMVWQNRDVYLQGPIWAKIPHTDGNFHPSPLMGGFGLKHPPPQILIKNTPVPADPPTTFNQSKLNSFITQYSTGQVSVEIEWELQKENSKRWNPEIQYTSNYYKSTSVDFAVNTEGVYSEPRPIGTRYLTRNL
# Target: the molecule itself
# Assay: native MS
protein,measurement,value
B1,binding result,binds
